The supplement of paper PMC11908140

B1: library; numbered along this chain (parent)
chain: MRKPRAAVGSGHRKQAASQEGRQKHAKNNSQAKPSACDGLARQPEEVVLQASVSSYHLFRDVAEVTAFRGSLLSWYDQEKRDLPWRRRAEDEMDLDRRAYAVWVSEVMLQQTQVATVINYYTGWMQKWPTLQDLASASLEEVNQLWAGLGYYSRGRRLQEGARKVVEELGGHMPRTAETLQQLLPGVGRYTAGAIASIAFGQATGVVDGNVARVLCRVRAIGADPSSTLVSQQLWGLAQQLVDPARPGDFNQAAMELGATVCTPQRPLCSQCPVESLCRARQRVEQEQLLASGSLSGSPDVEECAPNTGQCHLCLPPSEPWDQTLGVVNFPRKASRKPPREESSATCVLEQPGALGAQILLVQRPNSGLLAGLWEFPSVTWEPSEQLQRKALLQELQRWAGPLPATHLRHLGEVVHTFSHIKLTYQVYGLALEGQTPVTTVPPGARWLTQEEFHTAAVSTAMKKVFRVYQGQQPGTCMGSKRSQVSSPCSRKKPRMGQQVLDNFFRSHISTDAHSLNSAAQ

Variants of: B1
Assay: 8OG:A repair function score (normalized; synonymous = 0, nonsense = -1) (normalized log-likelihood score); higher = more repair activity (WT-like)
Conditions: with 8OG:A DNA repair reporter (GFP) in HEK-293 MUTYH KO cells
In short: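 With 10 pg/ml doxycycline, MUTYH knockout HEK-293 cells carrying lentiviral MUTYH cDNA NNN codon-scan libraries were co-transfected with mCherry and an 8OG:A GFP repair reporter. Viable mCherry+ cells were sorted into GFP+ (repair) and GFP− bins at 72 h, three replicates per tile, and tile amplicons were sequenced. Per-tile Rosace fitness scores were then normalized into a repair function score anchored on synonymous and nonsense distributions. Medians were fixed at 0 for synonymous and -1 for nonsense, excluding variants under 300 counts per million at the start.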

8OG:A repair function score, by site and new letter:
S378: C 0.0237, Q 0.0825, A -0.104, H -0.255, Y -0.26, W -0.346, P -0.772, R -0.122, L -0.171, T 0.295, G -0.248, F -0.0771, M -0.037, V -0.2, K -0.24, E -0.297, D -0.953, N 0.0818, I -0.143
W381: Y -0.0016, H 0.26, V 0.0132, D -0.141, P -0.215, A 0.0585, E 0.244, G 0.0649, I 0.0761, R -0.0405, T 0.0347, Q 0.126, L 0.07, F -0.181, S -0.174, K -0.184, C 0.15, N 0.268, M 0.148
A371: F -0.605, R -0.219, T -0.307, V -0.554, K -0.182, L -0.5, N -0.476, I -0.776, Q -0.374, P -0.216, C -0.182, S -0.172, W -0.408, Y -0.46, H -0.324, G 0.0402, D -0.824, M -0.439, E -0.577
L373: E -0.788, G -0.502, H -0.452, W -0.229, Q -0.26, P -1.03, K -0.314, N -0.777, A -0.596, S -0.647, F 0.16, D -1.15, V -0.504, R -0.666, I -0.315, C -0.611, Y -0.225, T -0.0654, M -0.286
E382: V 0.0267, T 0.196, W 0.0332, Q 0.185, G -0.0795, H 0.042, R -0.0901, M 0.019, A -0.0399, D -0.0303, C -0.16, L 0.0169, S 0.000352, I -0.0196, K -0.213, Y 0.217, N 0.0107, F 0.0805, P 0.149
P365: Y -0.212, W -0.0852
T380: M -0.0793, D 0.0495, K -0.0484, E -0.0632, Q 0.429, Y 0.0876, V -0.0828, G 0.0924, S 0.139, R 0.162, A 0.0285, L -0.0431, F 0.194, C -0.0502, P -0.128, H -0.465, N -0.171, I -0.128, W -0.271
F376: A -0.775, K -0.92, G -1.2, S -0.657, M -0.13, I -0.775, V -0.809, Y -0.715, C -0.559, H -0.879, L -0.608, P -1.02, T -0.441, R -1.31, E -1.28, W -0.757, D -0.964, N -1.17, Q -1.35
E375: T -0.355, M -0.229, D -0.434, H -0.347, L -0.83, K -0.462, P -0.897, Y -0.285, F -0.673, W -0.45, Q 0.0245, S -0.243, I -0.715, R -0.462, C -0.342, G -0.0637, N -0.407, V -0.423, A -0.313
V379: C -0.214, P -0.937, W -0.453, M -0.148, Q -0.792, L -0.463, N -0.658, A 0.00194, F -0.299, G -0.37, S -0.0246, I -0.327, E -0.777, K -0.667, D -0.793, T -0.0632, H -0.391, R -0.476, Y -0.744
P377: Q -0.969, V -0.171, L -0.733, W -1.42, A -0.486, F -1.17, C -0.633, M -1.07, I -0.348, Y -0.964, H -1.31, R -1.04, E -1.13, G -1.26, D -1.06, T -0.573, S -0.809, K -1.11, N -0.977
N366: E 0.176, G -0.066, H 0.288, Q 0.152, L -0.0714, T -0.00609, W -0.042, M -0.0331, R -0.0785, A 0.0425, F -0.0908, P -0.104, K -0.0179, Y 0.00766, D -0.00541, I -0.169, V -0.0917, S 0.0203, C -0.137
P383: I -0.14, G -0.0743, K -0.1, F -0.202, H 0.0207, A 0.0723, E 0.0397, C -0.0431, D 0.0298
G368: W -0.913, F -0.769, V -0.27, A -0.292, H -0.275, K -0.348, C -0.369, I -0.7, S -0.236, E -0.692, D -0.434, N -0.146, L -0.532, T -0.332, R -0.193, P -0.423, Q -0.304, Y -0.663, M -0.799
L370: A -0.326, R -0.775, Q -0.398, M -0.659, T -0.332, Y -0.258, I -0.377, H -0.297, C -0.0696, F -0.461, P -0.657, V -0.484, S -0.406, D -1, K -0.936, W -0.364, N -0.379, G -0.609, E -1.06
S367: F -0.13, I -0.335, A -0.145, V 0.0128, H -0.207, M 0.226, N 0.179, T 0.119, L -0.139, W 0.00054, Q -0.113, P -0.0154, Y -0.204, G -0.159, C -0.0437, R -0.201, E 0.154, K 0.111, D -0.0756
L369: E -0.807, Q 0.0329, G -0.359, I -0.0978, H -0.345, S -0.169, D -0.723, C -0.0782, F 0.0478, Y 0.153, P 0.0626, N 0.0162, V -0.297, A 0.0443, M 0.201, K -0.206, R 0.0308, W 0.187, T 0.0329
G372: F -0.294, S -0.15, Q -0.291, R -0.304, N -0.294, L -0.351, P -0.669, I -0.775, T -0.157, H -0.297, A -0.461, K -0.479, C -0.263, W -0.135, V -0.75, E -0.387, Y -0.393, D -0.324, M -0.639
W374: I -0.729, D -0.78, N -0.645, C -0.633, E -0.436, F -0.33, V -0.874, S -0.607, G -0.847, H -0.924, R -1.03, P -1.01, Q -0.828, Y -0.274, A -1.1, K -0.692, M 0.217, L -0.36, T -1.02
